# In patent publication US7247704:
# Biological target: Human Lung Tryptase (human) (UniProt Q15661)
# Test: cell-based or functional assay
# UniProt Q15661, sequence (Q15661 31-275 limits assumed): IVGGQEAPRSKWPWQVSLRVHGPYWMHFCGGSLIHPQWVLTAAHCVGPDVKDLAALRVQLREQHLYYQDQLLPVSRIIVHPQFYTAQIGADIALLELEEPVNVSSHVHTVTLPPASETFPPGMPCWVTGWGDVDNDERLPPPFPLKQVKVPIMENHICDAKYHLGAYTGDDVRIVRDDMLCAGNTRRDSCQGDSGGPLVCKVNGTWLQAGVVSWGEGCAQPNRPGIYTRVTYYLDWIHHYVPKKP
substance,measurement,value
recombinant human Secretory Leukocyte Protease Inhibitor (rhSLPI) (from UniProt P03973 26-132),"% Inhibition of tryptase (cleavage of vasoactive intestinal peptide, RP-HPLC; example calculation)",36.7%
